Assay results from article doi:10.1101/2020.03.10.986331.

The molecules below were run against SPPV14ΔC31 (sheeppoxvirus SPPV14 residues 1-145, 31 residue C-terminal deletion) (sheeppoxvirus) (assay: ITC).

| Molecule | Kd [µM] |
| --- | --- |
| Bad BH3 motif peptide (human) | 5.2 |
| Bax BH3 motif peptide (human, 28-mer) | 0.026 |
| Hrk BH3 motif peptide (human, 26-mer) | 0.039 |
| VPGRLAEVCAVLLRLGDELEMIRPSV [Bok BH3 motif peptide (human, residues 59-84)] | 7.6 |
